# Numbered stars: 1 amine (or outer) side, 2 acyl side, 3 side chain; on linkers, the order of the positions; unused ones are H or OH. Square brackets hold non-standard residues; d marks the D form. Ends that are not written are not given here. * marks the point of attachment. X2 = 4‑amino‑1‑((3-fluoro-4-methylbenzyl)glycyl)piperidine‑4‑carboxylic acid, Cc1ccc(CN(CC(=O)N2CCC(N[*:1])(C(=O)[*:2])CC2)[*:3])cc1F; Apc(4-OMe) = 4-aminopiperidine-4-carboxylic acid residue N1-acylated by a methoxy-bearing benzylglycyl; DOTA = O=C(O)CN1CCN(CC(=O)O)CCN(CC(=O)*)CCN(CC(=O)O)CC1; Api(1-amidino) = N=C(N)N1CCC(N)(C(=O)O)CC1; d(γGlu) = O=C(O)[C@@H](CCC(=O)[*:2])N[*:1]; Phe(3-F) = N[C@@H](Cc1cccc(F)c1)C(=O)O; εLys = N[C@@H](CCCCN[*:1])C(=O)[*:2]; Adipoyl = O=C(CCCCC(=O)[*:2])[*:1]; 4Pal = N[C@@H](Cc1ccncc1)C(=O)O; d4Pal = N[C@H](Cc1ccncc1)C(=O)O; 4Amb = NCc1ccc(C(=O)O)cc1; Octanoyl = CCCCCCCC(=O)*; APM = not defined here; Ahx = NCCCCCC(=O)O; azaGly = NNC(=O)O
# Target: human kisspeptin receptor (KISS1R) (human), Q969F8
# Sequence (Q969F8 whole entry): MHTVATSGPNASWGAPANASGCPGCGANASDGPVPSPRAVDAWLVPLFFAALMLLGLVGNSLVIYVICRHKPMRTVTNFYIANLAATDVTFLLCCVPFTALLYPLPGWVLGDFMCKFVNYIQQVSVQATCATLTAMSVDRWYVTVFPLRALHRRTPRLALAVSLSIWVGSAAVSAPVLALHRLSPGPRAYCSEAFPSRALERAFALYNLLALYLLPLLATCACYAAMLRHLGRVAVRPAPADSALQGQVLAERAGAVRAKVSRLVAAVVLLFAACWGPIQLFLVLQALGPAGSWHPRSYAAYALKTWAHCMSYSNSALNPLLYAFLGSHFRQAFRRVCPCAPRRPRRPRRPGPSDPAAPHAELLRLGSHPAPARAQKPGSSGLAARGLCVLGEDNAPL
# Assay: radioligand competition, hKISS1R membranes; legend: A is <10 nM
row,Ki [nM],Binder
1,< 10,{DOTA-APM}-ENT[beta‑(2-thienyl)alanine][azaGly]L[X2]W-NH2 (reading uncertain) [Compound 218]
2,< 10,{DOTA-Ahx}-ENTF[azaGly]L[Apc(4-OMe)]F-NH2 [Compound 236]
3,< 10,{DOTA}-[d(γGlu)]F[azaGly]L[X2]W-NH2 (SMILES Cc1ccc(CNCC(=O)N2CCC(NC(=O)[C@H](CC(C)C)NC(=O)NNC(=O)[C@H](Cc3ccccc3)NC(=O)CC[C@@H](NC(=O)CN3CCN(CC(=O)O)CCN(CC(=O)O)CCN(CC(=O)O)CC3)C(=O)O)(C(=O)N[C@@H](Cc3c[nH]c4ccccc34)C(N)=O)CC2)cc1F) [Compound 156]
4,< 10,{DOTA}-GY[dW]NTF[azaGly]L[X2]W-NH2 (SMILES Cc1ccc(CNCC(=O)N2CCC(NC(=O)[C@H](CC(C)C)NC(=O)NNC(=O)[C@H](Cc3ccccc3)NC(=O)[C@@H](NC(=O)[C@H](CC(N)=O)NC(=O)[C@@H](Cc3c[nH]c4ccccc34)NC(=O)[C@H](Cc3ccc(O)cc3)NC(=O)CNC(=O)CN3CCN(CC(=O)O)CCN(CC(=O)O)CCN(CC(=O)O)CC3)[C@@H](C)O)(C(=O)N[C@@H](Cc3c[nH]c4ccccc34)C(N)=O)CC2)cc1F) [Compound 151]
5,< 10,NTF[azaGly]L[X2]W-NH2 (not fully specified (N-terminus)) [Compound 167]
6,< 10,{3‑(2-(2-methoxyethoxy)ethoxy)propanoic acid}-[dY]K(DOTA)NTF[azaGly]L[Api(1-amidino)]W-NH2 [Compound 197]
7,< 10,{DOTA-APM}-TF[azaGly]L[X2]W-NH2 (reading uncertain) [Compound 233]
8,< 10,{3‑(2-(2-(3-(p-tolyl)propanamido)ethoxy)ethoxy)propanoic acid}-[dY]K(DOTA)NTF[azaGly]L[Api(1-amidino)]W-NH2 [Compound 195]
9,< 10,{DOTA}-GY[4Amb]NTF[azaGly]L[X2]W-NH2 (SMILES Cc1ccc(CNCC(=O)N2CCC(NC(=O)[C@H](CC(C)C)NC(=O)NNC(=O)[C@H](Cc3ccccc3)NC(=O)[C@@H](NC(=O)[C@H](CC(N)=O)NC(=O)c3ccc(CNC(=O)[C@H](Cc4ccc(O)cc4)NC(=O)CNC(=O)CN4CCN(CC(=O)O)CCN(CC(=O)O)CCN(CC(=O)O)CC4)cc3)[C@@H](C)O)(C(=O)N[C@@H](Cc3c[nH]c4ccccc34)C(N)=O)CC2)cc1F) [Compound 213]
10,< 10,{DOTA-4Amb}-NTF[azaGly]L[X2]Y-NH2 (SMILES Cc1ccc(CNCC(=O)N2CCC(NC(=O)[C@H](CC(C)C)NC(=O)NNC(=O)[C@H](Cc3ccccc3)NC(=O)[C@@H](NC(=O)[C@H](CC(N)=O)NC(=O)c3ccc(CNC(=O)CN4CCN(CC(=O)O)CCN(CC(=O)O)CCN(CC(=O)O)CC4)cc3)[C@@H](C)O)(C(=O)N[C@@H](Cc3ccc(O)cc3)C(N)=O)CC2)cc1F) [Compound 205]
11,< 10,{DOTA-4Amb-Met-Trp-εLys-Adipoyl}-NTF[azaGly]L[X2]W-NH2 [Compound 168]
12,< 10,{DOTA-Ahx}-NTF[azaGly]L[Apc(4-OMe)]F-NH2 [Compound 235]
13,< 10,{DOTA-4Amb}-GY[Ahx][dY][dW]NTF[azaGly]L[X2]W-NH2 (SMILES Cc1ccc(CNCC(=O)N2CCC(NC(=O)[C@H](CC(C)C)NC(=O)NNC(=O)[C@H](Cc3ccccc3)NC(=O)[C@@H](NC(=O)[C@H](CC(N)=O)NC(=O)[C@@H](Cc3c[nH]c4ccccc34)NC(=O)[C@@H](Cc3ccc(O)cc3)NC(=O)CCCCCNC(=O)[C@H](Cc3ccc(O)cc3)NC(=O)CNC(=O)c3ccc(CNC(=O)CN4CCN(CC(=O)O)CCN(CC(=O)O)CCN(CC(=O)O)CC4)cc3)[C@@H](C)O)(C(=O)N[C@@H](Cc3c[nH]c4ccccc34)C(N)=O)CC2)cc1F) [Compound 149]
14,< 10,{3‑(2-(2-(3-(4-iodophenyl)propanamido)ethoxy)ethoxy)propanoic acid}-[dY]K(DOTA)NTF[azaGly]L[Api(1-amidino)]W-NH2 [Compound 196]
15,< 10,{DOTA-2‑(4-aminopiperidin-1-yl)acetyl}-KNT[Phe(3-F)][azaGly]L[X2]W-NH2 [Compound 164]
16,< 10,{DOTA-4Amb}-[D‑3‑aminopentanedioic acid]NT[Phe(3-F)][azaGly]L[X2][4Pal]-NH2 [Compound 232]

row,Ki [nM],Binder
1,< 10,{DOTA-APM}-NTF[azaGly]L[X2]W-NH2 (reading uncertain) [Compound 158]
2,< 10,"{DOTA-(1r,4r)‑4‑(aminomethyl)cyclohexane‑1‑carbonyl}-ENT[Phe(3-F)][azaGly]L[X2]W-NH2 [Compound 160]"
3,< 10,{DOTA-Ahx}-NT[Phe(3-F)][azaGly]L[X2][4Pal]-NH2 (SMILES Cc1ccc(CNCC(=O)N2CCC(NC(=O)[C@H](CC(C)C)NC(=O)NNC(=O)[C@H](Cc3cccc(F)c3)NC(=O)[C@@H](NC(=O)[C@H](CC(N)=O)NC(=O)CCCCCNC(=O)CN3CCN(CC(=O)O)CCN(CC(=O)O)CCN(CC(=O)O)CC3)[C@@H](C)O)(C(=O)N[C@@H](Cc3ccncc3)C(N)=O)CC2)cc1F) [Compound 169]
4,< 10,{DOTA-APM}-ENT[Phe(3-F)][azaGly]L[X2]W-NH2 (reading uncertain) [Compound 159]
5,< 10,{DOTA-APM}-ETF[azaGly]L[X2]W-NH2 (reading uncertain) [Compound 234]
6,< 10,"{2,2',2''‑(10-(2-((((1s,4s)-4-carboxycyclohexyl)methyl)amino)-2-oxoethyl)-1,4,7,10-tetraazacyclododecane-1,4,7-triyl)triacetic acid}-ENT[Phe(3-F)][azaGly]L[X2][4Pal]-NH2 [Compound 170]"
7,< 10,"{DOTA-(1r,4r)‑4‑(aminomethyl)cyclohexane‑1‑carbonyl}-[dE]NT[Phe(3-F)][azaGly]L[X2]W-NH2 [Compound 161]"
8,< 10,{DOTA-Ahx}-[dY][dW]NTF[azaGly]L[Api(1-amidino)]W-NH2 (SMILES CC(C)C[C@H](NC(=O)NNC(=O)[C@H](Cc1ccccc1)NC(=O)[C@@H](NC(=O)[C@H](CC(N)=O)NC(=O)[C@@H](Cc1c[nH]c2ccccc12)NC(=O)[C@@H](Cc1ccc(O)cc1)NC(=O)CCCCCNC(=O)CN1CCN(CC(=O)O)CCN(CC(=O)O)CCN(CC(=O)O)CC1)[C@@H](C)O)C(=O)NC1(C(=O)N[C@@H](Cc2c[nH]c3ccccc23)C(N)=O)CCN(C(=N)N)CC1) [Compound 6]
9,< 10,{DOTA-trans‑4‑(aminomethyl)cyclohexane‑1‑carboxylic acid}-F[azaGly]L[X2]W-NH2 [Compound 192]
10,< 10,Octanoyl-[dY]K(DOTA)NTF[azaGly]L[X2]W-NH2 (SMILES CCCCCCCC(=O)N[C@H](Cc1ccc(O)cc1)C(=O)N[C@@H](CCCCNC(=O)CN1CCN(CC(=O)O)CCN(CC(=O)O)CCN(CC(=O)O)CC1)C(=O)N[C@@H](CC(N)=O)C(=O)N[C@H](C(=O)N[C@@H](Cc1ccccc1)C(=O)NNC(=O)N[C@@H](CC(C)C)C(=O)NC1(C(=O)N[C@@H](Cc2c[nH]c3ccccc23)C(N)=O)CCN(C(=O)CNCc2ccc(C)c(F)c2)CC1)[C@@H](C)O) [Compound 181]
11,< 10,{DOTA}-ENTF[azaGly]L[Apc(4-OMe)]F-NH2 [Compound 237]
12,< 10,{DOTA-4Amb}-[dE]NTF[azaGly]L[X2]Y-NH2 (SMILES Cc1ccc(CNCC(=O)N2CCC(NC(=O)[C@H](CC(C)C)NC(=O)NNC(=O)[C@H](Cc3ccccc3)NC(=O)[C@@H](NC(=O)[C@H](CC(N)=O)NC(=O)[C@@H](CCC(=O)O)NC(=O)c3ccc(CNC(=O)CN4CCN(CC(=O)O)CCN(CC(=O)O)CCN(CC(=O)O)CC4)cc3)[C@@H](C)O)(C(=O)N[C@@H](Cc3ccc(O)cc3)C(N)=O)CC2)cc1F) [Compound 206]
13,< 10,{DOTA}-G[dY][d4Pal]NTF[azaGly]L[X2]Y-NH2 (SMILES Cc1ccc(CNCC(=O)N2CCC(NC(=O)[C@H](CC(C)C)NC(=O)NNC(=O)[C@H](Cc3ccccc3)NC(=O)[C@@H](NC(=O)[C@H](CC(N)=O)NC(=O)[C@@H](Cc3ccncc3)NC(=O)[C@@H](Cc3ccc(O)cc3)NC(=O)CNC(=O)CN3CCN(CC(=O)O)CCN(CC(=O)O)CCN(CC(=O)O)CC3)[C@@H](C)O)(C(=O)N[C@@H](Cc3ccc(O)cc3)C(N)=O)CC2)cc1F) [Compound 193]
14,< 10,{Me‑PEG25‑C(:O)}-[dY]K(DOTA)NTF[azaGly]L[Api(1-amidino)]W-NH2 [Compound 182]
15,< 10,F[azaGly]L[X2]W-NH2 (not fully specified (N-terminus)) [Compound 203]

# From patent publication US20250312499A1, “KISSPEPTIN RECEPTOR (KISS1R) TARGETED THERAPEUTICS AND USES THEREOF” (priority 2024, published 2025)
